From the DeepSol protein solubility set

Test: soluble on expression in E. coli; label from the status in PepcDB or PDB records
With “MTDIDAIIIGAGVIGLATARELSMHGLSVIILESETEFGSATSSRNSEVIHAGLYYPAGSLKARLCVEGRQRLYDFCESHGVAHRHCGKLIVATSDDETPLLVALGAKGKANGCDDLELIDQRHALSLEPALACSSALLSPSTGIIDSHGYMLALLGEAQDHGAALALNAPFERAEAIGDGFRVHVGGKEPVSLTCRLLVNSAGLVAPMVAAMIEGLPSVAIPQARFAKGSYFSLTGKSPFSRLIYPAPHTHGLGVHLTLDLAGQARFGPDVEWVDTIDYAVDPRRMEGFGDAIRRYWPGLPEHTLAPAYSGIRPKISGPDEPAMDFRIDGPETHGFPGLVNLFGIESPGLTASLAIAGEIAARLEALEHHHHHH” the “soluble on expression in E. coli” value was “not soluble”. With “RARADKQHVLDMLFSAFEKHQYYNLKDLVDITKQPVVYLKEILKEIGVQNVKGIHKNTWELKPEYRHYQ” the “soluble on expression in E. coli” value was “soluble”. For “MAHHHHHHMLRRTVARFMASEAIGPAHPDILWGFMDGRYAGPGWVSWIKQLPVETLTMQGGTSMTNMNDRAGVILDPEDPRHSMALIQWGPMNHYDGAFMQLSYGDYGEIKKGSRLMQVLYDHYLEPFSMNRVCAQLYFYQKVPNNYHASVEASAEYIGQTASLVGQVVVGMGSVIMEGVTVKGDTNCVYIAEGVQVMENTCIVSDAPTDLLAYQRHEAINPYQQWDGMDGVCRIMQNTMIEPNCFLDSCSIGPFNRIGHNTKILKGVTTGTMVHILPGSVVTADTRIGDGELWGGAPAVKLGKVSKFEWKRPYYASLLHKECVVESYRNMSRYGDQVVYFQDEMGKLDTLMLQFESDITPSVKAKMKEFVQGREPFHHMLTRITQGWSPANRPDDKNYNLCPPLPAVKLFAEHNNDSSDSSLHGTYMNITNIFNDFRW”, the “soluble on expression in E. coli” value was “not soluble”. For “MKKRYSWEELARAMGIEPQRLENKEARELKKFVDEMTWPTHCNYCQGLDLTNPNPVHHPSYELTPACNHDCIFCYSNVAVKLGKAPKPGYYGWDNPKVITISQYGEPLLSPRIVEVNKMLRKRFPEARLDLQTNGSLLTRELWEKLDFDLVMISLNAADREKHRRIANADTFEQVVNALKIVGEDKSVRSVVRTVFMPGINDEDIPKIAELAASLGIDEMHLQPLTIHELNVERLKKAGLDFERAESIRELLKAAMEAKKYIDVRISGCILVQLKQMDPITLYSVRRVAREVVPLVKRSKLDILEHHHHHH”, the “soluble on expression in E. coli” value was “not soluble”. With “MKKVIGIGEYAVMKNPGVIVTLGLGSCVAVCMRDPVAKVGAMAHVMLPDSGGKTDKPGKYADTAVKTLVEELKKMGAKVERLEAKIAGGASMFESKGMNIGARNVEAVKKHLKDFGIKLLAEDTGGNRARSVEYNIETGKLLVRKVGGGEQLEIKEI” the “soluble on expression in E. coli” value was “soluble”. With “IRTHLNLPSDKKVIMYAPTWRDDEFVSKGKYLFELKIDLDNLYKELGDDYVILLRMHYLISNALDLSGYENFAIDVSNYNDVSELFLISDCLITDYSSVMFDYGILKRPQFFFAYDIDKYDKGLRGFYMNYMEDLPGPIYTEPYGLAKELKNLDKVQQQYQEKIDAFYDRFCSVDNGKASQYIGDLIHK” the “soluble on expression in E. coli” value was “not soluble”. With “MQNEKTLRKIKKLLALSKSSNPHEAAKALEMAQKLMQENRINQVEIEFSQYHGKQKTAKKSARYVHQLVGVITRAFGVDAYMSNFYPDKDEAEEKMHVVFYGAEGRPEIASYCFDVLYRQLQTARKEFLATQSKRLKRSTLISRGDEFCQGWVFGVHENVKEFAMTPEEKGKLERYRYNGFKDLQTAKVRDAGETRDYGLALSQGYKQGSKVTLNHGVNGKETTKLGGDEMKENNGWIACNLGSA” the “soluble on expression in E. coli” value was “not soluble”. For “MAHHHHHHMLLLLEREHPAVHAAVERILRGDSKIPVSVVRDFDGCEYHIRVEWDKEEKEMSQTSGVDSKDTGSGEVGTVNVGGTASVTVSLRSFTPFAELNTHGNFYEVLTTLFPSELQKFVVCDTHKGDGEDFTVAVHIPSNVPAKMLKEAMHSTAQLRAWSFVPAFARQFELFLTNPEVVQPLQLHYHDGEEMVVYNNRGSFIVAIALRVPSKDDAVLTRHFLQAMVEVRKHERSFCGSSAFIFEQGGPPDSVVAVTGPRGRVRDPNTFWCSFQLYKQQMEPPPRLVETVMHLVNFRTTLAYHIRAGRTYMHGIMRKRVESSLQWLNKAKARVAEETKITIT”, the “soluble on expression in E. coli” value was “not soluble”. In the case of “TPVLIRQLANKDRAREFSFLKDLGKDIAHFRFLGSFSTHAKVHDQLMDIDLHNRMAYIALAYDNDELTEIGVARYGAYEGDAHCEFAIAVSEKWQRRGVATALLKRLMETATKEGFSKISSMDASKNLAMDGLATSMGFTCRVDEKHGPRIFHEYVLVQ”, the “soluble on expression in E. coli” value was “not soluble”.
